# Assay results taken from US20220119513A1 (ZOETIS SERVICES, published 2022).
# Molecular target: T1, TGFβ1 (R&D Systems)
# T1 construct: also called TGFB1
# Assay: single point SPR
# T1 sequence (P01137 279-390): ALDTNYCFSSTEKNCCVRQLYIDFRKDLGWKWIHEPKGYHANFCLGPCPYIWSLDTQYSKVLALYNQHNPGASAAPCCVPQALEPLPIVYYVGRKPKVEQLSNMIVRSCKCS
row,Kd,Binder
1,0.341 nM,"Can-SL501-VH3 D108E / Can-SL501-VL2 (antibody, V domains shown) VH: EVQLVESGGDLVKPGGSLRLSCVASGFTFSSYGMHWVRQAPGKELEWVAVISYDGSIKYYADAVKGRFTISRDNAKNTLYLQMNSLRAEDTAVYYCARTGEYSGYDTEPQYSWGQGTTVTVSS VL: EIVMTQSPGSLAGSAGESVSINCRASQGIGDDLGWYQQKPGERPKLLIYGTSTLQSGVPARFSSSGSGTDFTLTINNLQAEDVGDYYCLQDSNYPLTFGAGTK"
2,4.97 nM,"Can-SL501-VH3 P109S / Can-SL501-VL2 (antibody, V domains shown) VH: EVQLVESGGDLVKPGGSLRLSCVASGFTFSSYGMHWVRQAPGKELEWVAVISYDGSIKYYADAVKGRFTISRDNAKNTLYLQMNSLRAEDTAVYYCARTGEYSGYDTDSQYSWGQGTTVTVSS VL: EIVMTQSPGSLAGSAGESVSINCRASQGIGDDLGWYQQKPGERPKLLIYGTSTLQSGVPARFSSSGSGTDFTLTINNLQAEDVGDYYCLQDSNYPLTFGAGTK"
3,3.51 nM,"Can-SL501-VH3 D108P / Can-SL501-VL2 (antibody, V domains shown) VH: EVQLVESGGDLVKPGGSLRLSCVASGFTFSSYGMHWVRQAPGKELEWVAVISYDGSIKYYADAVKGRFTISRDNAKNTLYLQMNSLRAEDTAVYYCARTGEYSGYDTPPQYSWGQGTTVTVSS VL: EIVMTQSPGSLAGSAGESVSINCRASQGIGDDLGWYQQKPGERPKLLIYGTSTLQSGVPARFSSSGSGTDFTLTINNLQAEDVGDYYCLQDSNYPLTFGAGTK"
4,6.9 nM,"Can-SL501-VH3 P109W / Can-SL501-VL2 (antibody, V domains shown) VH: EVQLVESGGDLVKPGGSLRLSCVASGFTFSSYGMHWVRQAPGKELEWVAVISYDGSIKYYADAVKGRFTISRDNAKNTLYLQMNSLRAEDTAVYYCARTGEYSGYDTDWQYSWGQGTTVTVSS VL: EIVMTQSPGSLAGSAGESVSINCRASQGIGDDLGWYQQKPGERPKLLIYGTSTLQSGVPARFSSSGSGTDFTLTINNLQAEDVGDYYCLQDSNYPLTFGAGTK"
5,7.37 nM,"Can-SL501-VH3 Q110V / Can-SL501-VL2 (antibody, V domains shown) VH: EVQLVESGGDLVKPGGSLRLSCVASGFTFSSYGMHWVRQAPGKELEWVAVISYDGSIKYYADAVKGRFTISRDNAKNTLYLQMNSLRAEDTAVYYCARTGEYSGYDTDPVYSWGQGTTVTVSS VL: EIVMTQSPGSLAGSAGESVSINCRASQGIGDDLGWYQQKPGERPKLLIYGTSTLQSGVPARFSSSGSGTDFTLTINNLQAEDVGDYYCLQDSNYPLTFGAGTK"
6,0.724 nM,"Can-SL501-VH3 D108S / Can-SL501-VL2 (antibody, V domains shown) VH: EVQLVESGGDLVKPGGSLRLSCVASGFTFSSYGMHWVRQAPGKELEWVAVISYDGSIKYYADAVKGRFTISRDNAKNTLYLQMNSLRAEDTAVYYCARTGEYSGYDTSPQYSWGQGTTVTVSS VL: EIVMTQSPGSLAGSAGESVSINCRASQGIGDDLGWYQQKPGERPKLLIYGTSTLQSGVPARFSSSGSGTDFTLTINNLQAEDVGDYYCLQDSNYPLTFGAGTK"
7,6.4 nM,"Can-SL501-VH3 Q110S / Can-SL501-VL2 (antibody, V domains shown) VH: EVQLVESGGDLVKPGGSLRLSCVASGFTFSSYGMHWVRQAPGKELEWVAVISYDGSIKYYADAVKGRFTISRDNAKNTLYLQMNSLRAEDTAVYYCARTGEYSGYDTDPSYSWGQGTTVTVSS VL: EIVMTQSPGSLAGSAGESVSINCRASQGIGDDLGWYQQKPGERPKLLIYGTSTLQSGVPARFSSSGSGTDFTLTINNLQAEDVGDYYCLQDSNYPLTFGAGTK"
8,13.9 nM,"Can-SL501-VH3 Y111W / Can-SL501-VL2 (antibody, V domains shown) VH: EVQLVESGGDLVKPGGSLRLSCVASGFTFSSYGMHWVRQAPGKELEWVAVISYDGSIKYYADAVKGRFTISRDNAKNTLYLQMNSLRAEDTAVYYCARTGEYSGYDTDPQWSWGQGTTVTVSS VL: EIVMTQSPGSLAGSAGESVSINCRASQGIGDDLGWYQQKPGERPKLLIYGTSTLQSGVPARFSSSGSGTDFTLTINNLQAEDVGDYYCLQDSNYPLTFGAGTK"
9,0.534 nM,"Can-SL501-VH3 P109F / Can-SL501-VL2 (antibody, V domains shown) VH: EVQLVESGGDLVKPGGSLRLSCVASGFTFSSYGMHWVRQAPGKELEWVAVISYDGSIKYYADAVKGRFTISRDNAKNTLYLQMNSLRAEDTAVYYCARTGEYSGYDTDFQYSWGQGTTVTVSS VL: EIVMTQSPGSLAGSAGESVSINCRASQGIGDDLGWYQQKPGERPKLLIYGTSTLQSGVPARFSSSGSGTDFTLTINNLQAEDVGDYYCLQDSNYPLTFGAGTK"
10,8.38 nM,"Can-SL501-VH3 Q110R / Can-SL501-VL2 (antibody, V domains shown) VH: EVQLVESGGDLVKPGGSLRLSCVASGFTFSSYGMHWVRQAPGKELEWVAVISYDGSIKYYADAVKGRFTISRDNAKNTLYLQMNSLRAEDTAVYYCARTGEYSGYDTDPRYSWGQGTTVTVSS VL: EIVMTQSPGSLAGSAGESVSINCRASQGIGDDLGWYQQKPGERPKLLIYGTSTLQSGVPARFSSSGSGTDFTLTINNLQAEDVGDYYCLQDSNYPLTFGAGTK"
11,5.76 nM,"Can-SL501-VH3 Q110H / Can-SL501-VL2 (antibody, V domains shown) VH: EVQLVESGGDLVKPGGSLRLSCVASGFTFSSYGMHWVRQAPGKELEWVAVISYDGSIKYYADAVKGRFTISRDNAKNTLYLQMNSLRAEDTAVYYCARTGEYSGYDTDPHYSWGQGTTVTVSS VL: EIVMTQSPGSLAGSAGESVSINCRASQGIGDDLGWYQQKPGERPKLLIYGTSTLQSGVPARFSSSGSGTDFTLTINNLQAEDVGDYYCLQDSNYPLTFGAGTK"
12,1.25 nM,"Can-SL501-VH3 D108Q / Can-SL501-VL2 (antibody, V domains shown) VH: EVQLVESGGDLVKPGGSLRLSCVASGFTFSSYGMHWVRQAPGKELEWVAVISYDGSIKYYADAVKGRFTISRDNAKNTLYLQMNSLRAEDTAVYYCARTGEYSGYDTQPQYSWGQGTTVTVSS VL: EIVMTQSPGSLAGSAGESVSINCRASQGIGDDLGWYQQKPGERPKLLIYGTSTLQSGVPARFSSSGSGTDFTLTINNLQAEDVGDYYCLQDSNYPLTFGAGTK"
13,0.798 nM,"Can-SL501-VH3 D108T / Can-SL501-VL2 (antibody, V domains shown) VH: EVQLVESGGDLVKPGGSLRLSCVASGFTFSSYGMHWVRQAPGKELEWVAVISYDGSIKYYADAVKGRFTISRDNAKNTLYLQMNSLRAEDTAVYYCARTGEYSGYDTTPQYSWGQGTTVTVSS VL: EIVMTQSPGSLAGSAGESVSINCRASQGIGDDLGWYQQKPGERPKLLIYGTSTLQSGVPARFSSSGSGTDFTLTINNLQAEDVGDYYCLQDSNYPLTFGAGTK"
14,1.83 nM,"Can-SL501-VH3 D108H / Can-SL501-VL2 (antibody, V domains shown) VH: EVQLVESGGDLVKPGGSLRLSCVASGFTFSSYGMHWVRQAPGKELEWVAVISYDGSIKYYADAVKGRFTISRDNAKNTLYLQMNSLRAEDTAVYYCARTGEYSGYDTHPQYSWGQGTTVTVSS VL: EIVMTQSPGSLAGSAGESVSINCRASQGIGDDLGWYQQKPGERPKLLIYGTSTLQSGVPARFSSSGSGTDFTLTINNLQAEDVGDYYCLQDSNYPLTFGAGTK"
15,4.5 nM,"Can-SL501-VH3 Y111H / Can-SL501-VL2 (antibody, V domains shown) VH: EVQLVESGGDLVKPGGSLRLSCVASGFTFSSYGMHWVRQAPGKELEWVAVISYDGSIKYYADAVKGRFTISRDNAKNTLYLQMNSLRAEDTAVYYCARTGEYSGYDTDPQHSWGQGTTVTVSS VL: EIVMTQSPGSLAGSAGESVSINCRASQGIGDDLGWYQQKPGERPKLLIYGTSTLQSGVPARFSSSGSGTDFTLTINNLQAEDVGDYYCLQDSNYPLTFGAGTK"
16,8.4 nM,"Can-SL501-VH3 P109Y / Can-SL501-VL2 (antibody, V domains shown) VH: EVQLVESGGDLVKPGGSLRLSCVASGFTFSSYGMHWVRQAPGKELEWVAVISYDGSIKYYADAVKGRFTISRDNAKNTLYLQMNSLRAEDTAVYYCARTGEYSGYDTDYQYSWGQGTTVTVSS VL: EIVMTQSPGSLAGSAGESVSINCRASQGIGDDLGWYQQKPGERPKLLIYGTSTLQSGVPARFSSSGSGTDFTLTINNLQAEDVGDYYCLQDSNYPLTFGAGTK"
17,9.68 nM,"Can-SL501-VH3 D108N / Can-SL501-VL2 (antibody, V domains shown) VH: EVQLVESGGDLVKPGGSLRLSCVASGFTFSSYGMHWVRQAPGKELEWVAVISYDGSIKYYADAVKGRFTISRDNAKNTLYLQMNSLRAEDTAVYYCARTGEYSGYDTNPQYSWGQGTTVTVSS VL: EIVMTQSPGSLAGSAGESVSINCRASQGIGDDLGWYQQKPGERPKLLIYGTSTLQSGVPARFSSSGSGTDFTLTINNLQAEDVGDYYCLQDSNYPLTFGAGTK"
18,1.35 nM,"Can-SL501-VH3 P109H / Can-SL501-VL2 (antibody, V domains shown) VH: EVQLVESGGDLVKPGGSLRLSCVASGFTFSSYGMHWVRQAPGKELEWVAVISYDGSIKYYADAVKGRFTISRDNAKNTLYLQMNSLRAEDTAVYYCARTGEYSGYDTDHQYSWGQGTTVTVSS VL: EIVMTQSPGSLAGSAGESVSINCRASQGIGDDLGWYQQKPGERPKLLIYGTSTLQSGVPARFSSSGSGTDFTLTINNLQAEDVGDYYCLQDSNYPLTFGAGTK"
19,1.59 nM,"Can-SL501-VH3 P109G / Can-SL501-VL2 (antibody, V domains shown) VH: EVQLVESGGDLVKPGGSLRLSCVASGFTFSSYGMHWVRQAPGKELEWVAVISYDGSIKYYADAVKGRFTISRDNAKNTLYLQMNSLRAEDTAVYYCARTGEYSGYDTDGQYSWGQGTTVTVSS VL: EIVMTQSPGSLAGSAGESVSINCRASQGIGDDLGWYQQKPGERPKLLIYGTSTLQSGVPARFSSSGSGTDFTLTINNLQAEDVGDYYCLQDSNYPLTFGAGTK"
20,5.61 nM,"Can-SL501-VH3 Q110T / Can-SL501-VL2 (antibody, V domains shown) VH: EVQLVESGGDLVKPGGSLRLSCVASGFTFSSYGMHWVRQAPGKELEWVAVISYDGSIKYYADAVKGRFTISRDNAKNTLYLQMNSLRAEDTAVYYCARTGEYSGYDTDPTYSWGQGTTVTVSS VL: EIVMTQSPGSLAGSAGESVSINCRASQGIGDDLGWYQQKPGERPKLLIYGTSTLQSGVPARFSSSGSGTDFTLTINNLQAEDVGDYYCLQDSNYPLTFGAGTK"
21,1.17 nM,"Can-SL501-VH3 Y111M / Can-SL501-VL2 (antibody, V domains shown) VH: EVQLVESGGDLVKPGGSLRLSCVASGFTFSSYGMHWVRQAPGKELEWVAVISYDGSIKYYADAVKGRFTISRDNAKNTLYLQMNSLRAEDTAVYYCARTGEYSGYDTDPQMSWGQGTTVTVSS VL: EIVMTQSPGSLAGSAGESVSINCRASQGIGDDLGWYQQKPGERPKLLIYGTSTLQSGVPARFSSSGSGTDFTLTINNLQAEDVGDYYCLQDSNYPLTFGAGTK"
22,7.46 nM,"Can-SL501-VH3 Y111P / Can-SL501-VL2 (antibody, V domains shown) VH: EVQLVESGGDLVKPGGSLRLSCVASGFTFSSYGMHWVRQAPGKELEWVAVISYDGSIKYYADAVKGRFTISRDNAKNTLYLQMNSLRAEDTAVYYCARTGEYSGYDTDPQPSWGQGTTVTVSS VL: EIVMTQSPGSLAGSAGESVSINCRASQGIGDDLGWYQQKPGERPKLLIYGTSTLQSGVPARFSSSGSGTDFTLTINNLQAEDVGDYYCLQDSNYPLTFGAGTK"
